30 molecules from patent US20190359693A1 (Janssen / Centocor, published 2019) can be followed below.

Where a chain is given by its changes, count along the chain named.

To fix the notation:
B1: SD1086 (VHH)
VHH: EVQLVESGGGLVQAGGSLRLSCTASGSISSIDYMRWYRQYPGKHRELVATITSGGAADSRDSVKGRFTVSRGNAANTMYLQMNNLKPEDTAVYYCNAYGLEIGAHWGRGTQVTVSS
B2: SD3069 (VHH)
VHH: EVQLVESGGGLVQPGGSLRLSCAISGLSLDTYAVGWFRQAPGKEREGITCISSGHGMTYYADSVKGRFTVSTDNSKNTLYLQMNSLRAEDTAVYYCATESRYYCSDNWPAPQRYIYWGQGTLVTVSS
B3: SD3072 (VHH)
VHH: B2 VHH with I24A
B4: SD3070 (VHH)
VHH: B2 VHH with M57I
B5: SD3071 (VHH)
VHH: B2 VHH with M57L
B6: SD3074 (VHH)
VHH: B2 VHH with V70I
B7: SD3051 (VHH)
VHH: EVQLVESGGGLVQPGGSLRLSCAASGLSLDTYAMSWFRQAPGKEREGVSCISSGHGITYYADSVKGRFTISRDNSKNTLYLQMNSLQPEDTARYYCATESRYYCSDNWPAPQRYIYWGQGTQVTVSS
B8: SD3104 (VHH)
VHH: B2 VHH with I48V, T49S, M57N, V70I
B9: SD3073 (VHH)
VHH: B2 VHH with I48V, T49S
B10: SD3092 (VHH)
VHH: B2 VHH with I48V, T49S, V70I
B11: SD3075 (VHH)
VHH: B2 VHH with I24A, I48V, T49S, M57I, V70I
B12: SD3076 (VHH)
VHH: B2 VHH with I24A, I48V, T49S, M57L, V70I
B13: SD3100 (VHH)
VHH: B2 VHH with I48V, T49S, M57A, V70I
B14: SD3093 (VHH)
VHH: B2 VHH with I48V, T49S, V70I, L79V
B15: SD3054 (VHH)
VHH: B7 VHH with V48I, S49T
B16: SD3102 (VHH)
VHH: B2 VHH with I48V, T49S, M57Q, V70I
B17: SD3053 (VHH)
VHH: B7 VHH with I57F
B18: SD3103 (VHH)
VHH: B2 VHH with I48V, T49S, M57D, V70I
B19: SD3052 (VHH)
VHH: B7 VHH with I57L
B20: SD3055 (VHH)
VHH: B7 VHH with V48I, S49T, I57L
B21: SD3056 (VHH)
VHH: B7 VHH with V48I, S49T, I57F
B22: SD3101 (VHH)
VHH: B2 VHH with I48V, T49S, M57S, V70I
B23: SD1049 (VHH)
VHH: EVQLVESGGGLVQAGGSLRLSCAASGRTLSLYSVGWFRQAPGKEREFVATIGWNSGRTFYVDSMKGRFTISRDNAKNTVYLQMNDLKVEDTAVYYCAAAKGPLRLSNQADYWGQGTQVTVSS
B24: SD1048 (VHH)
VHH: EVQLVESGGGVVQPGGSLRLSCVASGRTSSMYSIGWFRQAPGKEREFVAVIGWYSGRTFYTDSMKGRFTISRDNARNTVYLQMNSLKPEDTAVYYCAAANGPLRLSNQADYWGQGTQVTVSS
B25: SD1017 (VHH)
VHH: EVQLVESGGGLVQAGGSLRLSCAASGRTYAMAWFRQAPGKEREFVAHINALGTRAYYSDSVEGRFTISRDNAKNTGYLQMNSLEPEDTAVYVCAAGGQWRAAPVADAAQYDFWGQGTQVTVSS
B26: MD1209 (VHH)
chain: EVQLVESGGGLVQAGGSLKLSCAASGRTYAMGWFRQAPGKEREFVAHINALGTRTYYSDSVKGRFTISRDNAKNTEYLEMNNLKPEDTAVYYCTAQGQWRAAPVAVAAEYEFWGQGTQVTVSSAAAGGGGSGGGGSGGGGSGGGGSGGGGSGGGGSGGGGSEVQLVESGGGLVQAGGSLKLSCAASGRTYAMGWFRQAPGKEREFVAHINALGTRTYYSDSVKGRFTISRDNAKNTEYLEMNNLKPEDTAVYYCTAQGQWRAAPVAVAAEYEFWGQGTQVTVSS
B27: MD1210 (bispecific antibody)
chain: EVQLVESGGGLVQAGGSLKLSCAASGRTYAMGWFRQAPGKEREFVAHINALGTRTYYSDSVKGRFTISRDNAKNTEYLEMNNLKPEDTAVYYCTAQGQWRAAPVAVAAEYEFWGQGTQVTVSSAAAGGGGSGGGGSGGGGSGGGGSGGGGSGGGGSGGGGSEVQLVESGGGLVQPGGSLRLSCAVSISIFDIYAMDWYRQAPGKQRDLVATSFRDGSTNYADSVKGRFTISRDNAKNTLYLQMNSLKPEDTAVYLCHVSLYRDPLGVAGGMGVYWGKGALVTVSS
B28: MD1212 (VHH)
chain: EVQLVESGGGLVQPGGSLRLSCAVSISIFDIYAMDWYRQAPGKQRDLVATSFRDGSTNYADSVKGRFTISRDNAKNTLYLQMNSLKPEDTAVYLCHVSLYRDPLGVAGGMGVYWGKGALVTVSSAAAGGGGSGGGGSGGGGSGGGGSGGGGSGGGGSGGGGSEVQLVESGGGLVQPGGSLRLSCAVSISIFDIYAMDWYRQAPGKQRDLVATSFRDGSTNYADSVKGRFTISRDNAKNTLYLQMNSLKPEDTAVYLCHVSLYRDPLGVAGGMGVYWGKGALVTVSS
B29: MD1211 (bispecific antibody)
chain: EVQLVESGGGLVQPGGSLRLSCAVSISIFDIYAMDWYRQAPGKQRDLVATSFRDGSTNYADSVKGRFTISRDNAKNTLYLQMNSLKPEDTAVYLCHVSLYRDPLGVAGGMGVYWGKGALVTVSSAAAGGGGSGGGGSGGGGSGGGGSGGGGSGGGGSGGGGSEVQLVESGGGLVQAGGSLKLSCAASGRTYAMGWFRQAPGKEREFVAHINALGTRTYYSDSVKGRFTISRDNAKNTEYLEMNNLKPEDTAVYYCTAQGQWRAAPVAVAAEYEFWGQGTQVTVSS
B30: SD1034 (VHH)
VHH: EVQLVESGGGLVQAGGSLRLSCAASGTIFGIRVNTMGWYRQAPGEQRELVATITRSGGTNYADSVKDRFTISGDFAKDTVYLQMMHLKPEDTAVYYCNGRWALTDYWGQGTQVTVSS

The target in the first assay is HA of B/Malaysia/2506/04 (Victoria) (influenza B virus). The assay is described as follows: cell-based or functional assay.
Consider B1, for which the VNA titer is above 1000 nM.

The target of the next assay is HA of B/Harbin/7/94 (Yamagata) (influenza B virus). The assay is described as follows: cell-based or functional assay.
B1 gave a VNA titer above 1000 nM.

For another assay, the target named is hemagglutinin (HA) of influenza B/Brisbane/60/08 (Victoria) (influenza B virus). The assay is described as follows: cell-based or functional assay.
For B2, the “VNA IC50” value worked out at 56 nM.

B3: the “VNA IC50” value was 160 nM.

As to B4, the “VNA IC50” value is above 1000 nM.

On to B5, for which the “VNA IC50” value is above 1000 nM.

On to B6, for which the “VNA IC50” value turned out to be 36 nM.

Consider B7, for which the “VNA IC50” value is above 1000 nM.

Turning to B8, the “VNA IC50” value is above 1000 nM.

With B9, the “VNA IC50” value worked out at 28 nM.

As for B10, the “VNA IC50” value stood at 51 nM.

In the case of B11, the “VNA IC50” value was above 1000 nM.

Take B12: the “VNA IC50” value was above 1000 nM.

Turning to B13, the “VNA IC50” value is above 1000 nM.

B14: the “VNA IC50” value amounted to 32 nM.

With B15, the “VNA IC50” value was above 1000 nM.

In the case of B16, the “VNA IC50” value is above 1000 nM.

As to B17, the “VNA IC50” value was above 1000 nM.

For B18, the “VNA IC50” value is above 1000 nM.

As to B19, the “VNA IC50” value is above 1000 nM.

For the molecule B20, the “VNA IC50” value is above 1000 nM.

Take B21: the “VNA IC50” value is above 1000 nM.

With B22, the “VNA IC50” value is above 1000 nM.

The next assay concerns the target HA of H1N1 A/Puerto Rico/8/34-MA (influenza A virus). The assay can be described thus: cell-based or functional assay.
Regarding B23, the VNA titer is above 1000 nM.

B24 yielded a VNA titer above 1000 nM.

For the molecule B25, the VNA titer was above 1000 nM.

The target of the next assay is HA of H5N1 A/PR8 H5N1 HK97 (influenza A virus). The assay can be described thus: cell-based or functional assay.
With B24, the VNA titer is above 1000 nM.

For a further assay, the target named is HA of H7N7 A/PR8 H7N7-NY (influenza A virus). The assay can be described thus: cell-based or functional assay.
In the case of B24, the VNA titer was 93 nM.

The target of a further assay is HA of H10N7 A/Chick/Germany/N/49 (influenza A virus). The assay can be described thus: cell-based or functional assay.
In the case of B24, the VNA titer was 34.3 nM.

Another assay addresses HA of H3N2 A/HK/1/68-MA (influenza A virus). The assay is described as follows: cell-based or functional assay.
The molecule B23 gave a VNA titer of 76.1 nM.

With B24, the VNA titer was 110 nM.

As to B25, the VNA titer is above 1000 nM.

The next assay addresses HA of H3N2 A/Panama/2007/99 (influenza A virus). The assay can be described thus: cell-based or functional assay.
As to B24, the VNA titer is above 1000 nM.

A further assay addresses HA of H3N2 A/Wisconsin/67/2005 (influenza A virus). The assay can be described thus: cell-based or functional assay.
The molecule B24 had a VNA titer above 1000 nM.

The molecule B25 had a VNA titer above 1000 nM.

The target in a further assay is HA of H4 A/WF/HK/MPA892/06 (influenza A virus). The assay is described as follows: cell-based or functional assay.
The molecule B24 came in with a VNA titer of 34.3 nM.

The next assay addresses hemagglutinin (HA) of influenza virus H5N1 A/Vietnam/1194/04 (influenza A virus). The assay is described as follows: cell-based or functional assay.
B26 displayed a neutralization titer below 1000 nM.

B27 had a neutralization titer of 21.4 nM.

In turn, B28 gave a neutralization titer of 14.8 nM.

On to B29, for which the neutralization titer is 7.6 nM.

In a further assay the target is hemagglutinin (HA) of influenza virus H1N1 A/California/07/09 (influenza A virus). The assay is described as follows: cell-based or functional assay.
On to B26, for which the neutralization titer amounted to 10.1 nM.

On to B27, for which the neutralization titer was 2.5 nM.

On to B28, for which the neutralization titer turned out to be 3.7 nM.

For the molecule B29, the neutralization titer was 4 nM.

The target in the next assay is hemagglutinin (HA) of influenza virus H3N2 A/Wisconsin/67/05 (influenza A virus). The assay is described as follows: cell-based or functional assay.
Regarding B26, the neutralization titer was 109 nM.

Take B27: the neutralization titer worked out at 118 nM.

B28 returned a neutralization titer of 49.5 nM.

B29 yielded a neutralization titer of 19.3 nM.

The target in a further assay is hemagglutinin (HA) of influenza virus H1N1 A/Puerto Rico/8/34-MA (influenza A virus). The assay is described as follows: cell-based or functional assay.
B26 came in with a neutralization titer of 221 nM.

Regarding B27, the neutralization titer turned out to be 21.9 nM.

Molecule B28 showed a neutralization titer of 11.7 nM.

B29: the neutralization titer stood at 9.9 nM.

For the next assay, the target named is HA of H3N2 A/HK/1/68-MA (influenza A virus). The assay is described as follows: cell-based or functional assay. The source holds these as a separate data set.
Consider B30, for which the VNA titer was above 1000 nM.

The target of a further assay is recombinant HA of H1N1 A/New Caledonia/20/1999 (influenza A virus, UniProt Q289M7 18-565). The assay is described as follows: biolayer interferometry (Octet), steady-state fit, geometric mean. (Biolayer interferometry detects binding as a change in optical thickness at a sensor tip.)
What is called Kd is the free concentration of one partner at which half of the binding sites on the other are occupied at equilibrium, for simple one-to-one binding. As for B26, the Kd was found to be 1.9 nM.

As for B27, the equilibrium dissociation constant (Kd) was determined as 0.7 nM.

As for B28, the Kd is 1.4 nM.

In the case of B29, the Kd is 1.7 nM.
